The values that follow come from patent publication US7338938B2, “Methods for treating a patient undergoing chemotherapy” (University of Southern California, priority 1999, dated 2008).

For data set [1], the system named is female C57B1/6 mice treated with 200 mg/kg cytoxan. Conditions: 200 mg/kg cyclophosphamide i.v.
The subject of data set [2] is mice injected with 150 mg/kg 5FU intravenously (WBC, platelets, hemoglobin). Description: Effect of angiotensin fragments and ACE inhibitor on recovery after chemotherapy (Example 4). Format: in vivo. Conditions: for relative effect on increase in WBC (ranking of active agents): throughout the experimental period. The method, then: The next study was designed to test the effect of angiotensin peptides and the angiotensin converting enzyme inhibitor, enalapril, on recovery of white blood cells, platelets and hemoglobin after chemotherapy, as well as on granulocyte-macrophage colony forming units (GM-CFU) in the blood and bone marrow.
Female […] mice (4 per group), 6-8 weeks old, were injected with 150 mg/kg 5FU intravenously. Administration of the peptides (AII (100 μg/kg/day), AII(1-7) (10 or 100 μg/kg/day), AII(1-5) (10 or 100 μg/kg/day), and AII(1-6) (100 μg/kg/day)), by subcutaneous injection, or enalapril (30 mg/kg/day) by oral gavage, was begun 2 days after administration of the antineoplastic and continued daily until 28 days after 5FU administration, at which time the mice were euthanized for evaluation of white blood cell numbers, platelets, hemoglobin levels and the number of GM-CFU in the bone marrow and peripheral blood. On days 7, 10, 14 and 21 after 5FU administration, blood was taken under anesthesia from the retro-orbital sinus to assess white blood cell number, platelet number, and hemoglobin levels.
The mice were bled from the retro-orbital sinus at days 7, 10, 14 and 21. The mice were anesthetized with Metofane (an inhaled anesthesia). Approximately 150-200 μl of blood were obtained from the retro-orbital sinus with a heparinzed capillary tube. The blood was then placed in a 1.7 ml microfuge tube containing 10 mM EDTA and held on ice until further processing.
One hundred μl of blood was pipetted into a centrifuge tube, to which 900 μl of distilled water was added. The blood and water were mixed by inversion and allowed incubate at 4° C. for 20 minutes. The tube was then centrifuged at 12000 rpm to precipitate the cellular debri for 20 to 30 minutes at room temperature. Twenty μl of the supernatant from this centrifugation was then added into triplicate wells of a 96 well plate containing 180 μl of distilled water. The optical density, was then read using a microplate reader at […].
Twenty μl of blood was mixed with 200 μl of red blood cell (RBC) lysing solution (0.83% NH4Cl, 10 mM EDTA, 0.5% NaHCO3). The mixture was then incubated for 10 minutes at 4° C. After this incubation, the supernatant was removed and the pellet was resuspended in 100 μl of PBS. To this, 100 μl of 0.04% trypan blue was added. This mixture was vortexed and the number of WBC (baseline was approximately 10^7 cells/ml) was evaluated by hematocytometer under light microscopy and the number: of platelets (baseline was approximately 2.5×10^8 platelets/ml) was evaluated by hematocytometer under phase contrast microscopy.
The blood was harvested by cardiac puncture on day 10 to assess mobilization of myeloid progenitors into the peripheral blood. The femurs and tibia were also collected and the bone marrow was harvested by flushing with PBS containing 2% fetal calf serum. After collection of the blood and bone marrow, the red blood cells were lysed with a hypotonic solution (described above), mixed with 0.04% trypan blue, and the number of nucleated cells assessed by hematocytometer under light microscopy. Aliquots of cells were then resuspended at 1×10^5 cells/ml (bone marrow) or 1×10^6 cells/ml Flood). […]

Data set [3] relates to animals given intravenous 5FU (white blood cells, CFU-GM). Description: Effect of AII on white blood cell mobilization and recovery after 5-fluorouracil (Example 1). Format: in vivo, mice. Conditions: AII 10 or 100 μg/kg/day s.c., started day -2, 0 or 2 relative to i.v. 5FU; day 7 or 14; all tissues tested (blood, spleen, thymus, bone marrow). The method, then:
This study was designed to test the effect of AII on the recovery of white blood cells in lymphoid organs and on the level of granulocyte macrophage precursors (CFU-GM) in the blood (ie: mobilization), spleen (mobilization), and bone marrow (recovery) after intravenous administration of 5-fluorouracil (5FU). […] The number of white blood cells in each of the lymphoid organs, or the number of CFU-GM present in all the organs except the thymus were then assessed.

The test system of the next data set is AT2 receptor. Conditions: cited from earlier work.
Data set [4] can be described thus: Tests of AII fragments for effectiveness (method not described). Conditions: test not specified.
Data set [5] has as its system patients with newly diagnosed breast cancer receiving doxorubicin and cyclophosphamide.
Where [6] appears, read: filgrastim 5.0 μg/kg/day comparator arm.

Entries after “also recorded” stand apart in the source; their conditions may differ. Non-standard residues stand in square brackets, D forms with d. No end group written: not given here. Phe(4-NH2) = Nc1ccc(C[C@H](N)C(=O)O)cc1

Regarding `O=P1(N(CCCl)CCCl)NCCCO1` (stereo not shown) [cyclophosphamide, reference compound], the “number of myeloid progenitors (GM-CFU) in the bone marrow after cyclophosphamide” value in data set [1] is “significantly reduced”.

As for `CCOC(=O)[C@H](CCc1ccccc1)N[C@@H](C)C(=O)N1CCC[C@H]1C(=O)O` [enalapril, reference compound], the “relative effect on increase in WBC (ranking of active agents)” value (“relative effect on increase in WBC” for short) in data set [2] is “least effective”.

Consider Asp-Arg-Val-Tyr-Ile (DRVYI) [AII(1-5)], for which the platelets after administration entry in data set [2] (after i.v. 5FU) was “increase in platelets”.

As for “Asp-Arg-Val-Tyr-Ile-His-Pro-Phe (DRVYIHPF) [AII]”, the “white blood cell mobilization and/or recovery” value in data set [3] was “significantly enhanced”. For the same molecule, the “relative effect on increase in WBC” value in data set [2] is listed as “most profound effect”.

As for “Asp-Arg-Val-Tyr-Ile-Xaa-Pro-Phe (DRVYI[Phe(4-NH2)]PF) [(p-NH2-Phe)6-AII]”, in the data set on AT2 receptor, the “affinity for AT2 relative to other receptor subtype” value was 100 times and the “binding characteristics in the experimental models tested” value was “comparable’ to AT2 antagonists”.

For the molecule DRVYIH [AII(1-6)], in data set [2], the “relative effect on increase in WBC” value is “least effective”.

With His-Pro-Phe (HPF) [AII(6-8)], the effectiveness in tests result in data set [4] is on record as “not to be effective”.

For Tyr-Ile-His-Pro-Phe (YIHPF) [AII(4-8)], the effectiveness in tests result in data set [4] is “not to be effective; also recorded: ineffective”.

B1: Filgrastim: recombinant G-CSF (NEUPOGEN, Amgen, Inc.), comparator arm (protein, UniProt P09919 31-207, looked up)
Granulocyte …: TPLGPASSLPQSFLLKCLEQVRKIQGDGAALQEKLVSECATYKLCHPEELVLLGHSLGIPWAPLSSCPSQALQLAGCLSQLHSGLFLYQGLLQALEGISPELGPTLDTLQLDVADFATTIWQQMEELGMAPALQPTQGAMPAFASAFQRRAGGVLVASHLQSFLEVSYRVLRHLAQP
modifications: filgrastim, N-terminal methionine
In the case of B1, in data set [5] (chemotherapy patients), the “Alopecia (frequency by treatment group)” value stood at 40%, the “Anemia (frequency by treatment group)” value was found to be 60%, the “Fatigue (frequency by treatment group)” value is reported as 80% and the “Headache (frequency by treatment group)” value is on record as 60%. In data set [5] (chemotherapy patients), the “Myalgia/Muscle-skeletal pain (frequency by treatment group)” value amounted to 60%, the “Nausea (frequency by treatment group)” value is on record as 100%, the “Stomatitis (frequency by treatment group)” value turned out to be 60% and the “Vomiting (frequency by treatment group)” value is 60%. In addition, in data set [5] (setting [6]), the “Toxicity: ANC < 1000/μl (frequency)” value is listed as 40%, the “Toxicity: Hgb < 10 gm/dl (frequency)” value is listed as 60%, the “Toxicity: Lymph < 500/μl (frequency)” value is reported as 80% and the “Toxicity: Platelet < 80 K/μl (frequency)” value is listed as 60%. In addition, the “Toxicity: WBC < 2000/μl (frequency)” value in data set [5] (setting [6]) came to 60%. In addition, in data set [5] (filgrastim compared to AII(1-7)), the “frequency of grade 3-4 neutropenia” value is listed as “lower frequency”. In addition, in data set [5] (patients that received filgrastim, more pronounced in subsequent cycles), the “change in platelet number” value is reported as “time dependent decrease in platelet number”.
